# Columns and labels:
# [1] = molecular target: T1, MeCP2[MBD] (mouse (fragment sequence identical in …, UniProt Q9Z2D6 77-167)); test: BLI; poly(dI-dC) 1 ug/ml; main text prints 63.17; BLI: 150 mM NaCl, 10 mM HEPES pH 8.0, 0.05% Tween20, poly(dI-dC) 1 ug/ml; MBD2 EMSA: 20 mM HEPES pH 7.9, 150 mM KCl, 8% Ficoll, 1 mM EDTA, 0.5 mM DTT, poly(dI-dC) 40 ng/ul, RT; N-term EMSA: 10 mM Tris-HCl pH 7.5, 150 mM KCl, 5% glycerol, 0.1 mM EDTA, 0.1 mg/ml BSA, 1 ug poly(dA-dT), on ice; pull-down at 4 C; details: protein: recombinant; tags: pET28 (NdeI/EcoRI), His tag (Ni-NTA purified; tag removal not mentioned); label: 5'-biotin on strand 1; 19 bp, 5' overhang 1 nt each end
# [2] = molecular target: T1, MeCP2[MBD]; test: BLI; poly(dI-dC) 1 ug/ml; BLI: 150 mM NaCl, 10 mM HEPES pH 8.0, 0.05% Tween20, poly(dI-dC) 1 ug/ml; MBD2 EMSA: 20 mM HEPES pH 7.9, 150 mM KCl, 8% Ficoll, 1 mM EDTA, 0.5 mM DTT, poly(dI-dC) 40 ng/ul, RT; N-term EMSA: 10 mM Tris-HCl pH 7.5, 150 mM KCl, 5% glycerol, 0.1 mM EDTA, 0.1 mg/ml BSA, 1 ug poly(dA-dT), on ice; pull-down at 4 C; details: protein: recombinant; tags: pET28 (NdeI/EcoRI), His tag (Ni-NTA purified; tag removal not mentioned); label: 5'-biotin on strand 1; 19 bp, 5' overhang 1 nt each end
# [3] = molecular target: MBD2[MBD] (human, UniProt Q9UBB5 139-224); test: EMSA; 2 uM protein; poly(dI-dC); BLI: 150 mM NaCl, 10 mM HEPES pH 8.0, 0.05% Tween20, poly(dI-dC) 1 ug/ml; MBD2 EMSA: 20 mM HEPES pH 7.9, 150 mM KCl, 8% Ficoll, 1 mM EDTA, 0.5 mM DTT, poly(dI-dC) 40 ng/ul, RT; N-term EMSA: 10 mM Tris-HCl pH 7.5, 150 mM KCl, 5% glycerol, 0.1 mM EDTA, 0.1 mg/ml BSA, 1 ug poly(dA-dT), on ice; pull-down at 4 C; details: protein: recombinant; tags: N-terminal His6 removed by TEV; residual N-terminal SM; label: 5'-FAM on strand 1; 19 bp, 5' overhang 1 nt each end
# [4] = molecular target: MM2[N-term] (mouse, UniProt Q9Z2D6 1-93+Q9Z2E1:153-217+165-205, internal_change); test: EMSA; 0-4.5 uM protein; BLI: 150 mM NaCl, 10 mM HEPES pH 8.0, 0.05% Tween20, poly(dI-dC) 1 ug/ml; MBD2 EMSA: 20 mM HEPES pH 7.9, 150 mM KCl, 8% Ficoll, 1 mM EDTA, 0.5 mM DTT, poly(dI-dC) 40 ng/ul, RT; N-term EMSA: 10 mM Tris-HCl pH 7.5, 150 mM KCl, 5% glycerol, 0.1 mM EDTA, 0.1 mg/ml BSA, 1 ug poly(dA-dT), on ice; pull-down at 4 C; details: protein: recombinant; tags: C-terminal 6xHis; label: 32P (T4 PNK); blunt
# [5] = molecular target: T2, MeCP2[N-term] WT (mouse, UniProt Q9Z2D6 1-205); test: EMSA; 0-4.5 uM protein; not different from mCG (p = 0.613); BLI: 150 mM NaCl, 10 mM HEPES pH 8.0, 0.05% Tween20, poly(dI-dC) 1 ug/ml; MBD2 EMSA: 20 mM HEPES pH 7.9, 150 mM KCl, 8% Ficoll, 1 mM EDTA, 0.5 mM DTT, poly(dI-dC) 40 ng/ul, RT; N-term EMSA: 10 mM Tris-HCl pH 7.5, 150 mM KCl, 5% glycerol, 0.1 mM EDTA, 0.1 mg/ml BSA, 1 ug poly(dA-dT), on ice; pull-down at 4 C; details: protein: recombinant; tags: C-terminal 6xHis; label: 32P (T4 PNK); blunt
# [6] = molecular target: T2, MeCP2[N-term] WT; test: EMSA; 0-4.5 uM protein; BLI: 150 mM NaCl, 10 mM HEPES pH 8.0, 0.05% Tween20, poly(dI-dC) 1 ug/ml; MBD2 EMSA: 20 mM HEPES pH 7.9, 150 mM KCl, 8% Ficoll, 1 mM EDTA, 0.5 mM DTT, poly(dI-dC) 40 ng/ul, RT; N-term EMSA: 10 mM Tris-HCl pH 7.5, 150 mM KCl, 5% glycerol, 0.1 mM EDTA, 0.1 mg/ml BSA, 1 ug poly(dA-dT), on ice; pull-down at 4 C; details: protein: recombinant; tags: C-terminal 6xHis; label: 32P (T4 PNK); blunt
# Sequence of MBD2[MBD] (Q9UBB5 139-224): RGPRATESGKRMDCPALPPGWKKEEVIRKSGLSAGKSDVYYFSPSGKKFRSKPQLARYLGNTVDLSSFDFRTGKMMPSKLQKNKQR
binder,measurement,setting,value
"BLI mCAT probe (dsDNA, 5mC at CAT: C8 of strand 1 (underlining lost in text)) DNA 1: TCTGGAACATAATTCTTCTA DNA 2: ATAGAAGAATTATGTTCCAG",Kd,[1],63.7 nM
"BLI mCG probe (dsDNA, 5mC at CG: C8 of strand 1 and probably C13 of strand 2 (underlining lost in text)) DNA 1: TCTGGAACGGAATTCTTCTA DNA 2: ATAGAAGAATTCCGTTCCAG",Kd,[2],22.2 nM
"FAM mCG probe (dsDNA, 5mC at CG: C8 of strand 1 and probably C13 of strand 2 (underlining lost in text)) DNA 1: TCTGGAACGGAATTCTTCTA DNA 2: ATAGAAGAATTCCGTTCCAG",binding result,[3],binds
"Bdnf mCAC probe (dsDNA, 5mC at central CAC: C21 of strand 1 (underlining lost in text)) DNA 1: AAGCATGCAATGCCCTGGAACACAATTCTTCTAATAAAAGATGTATCATTTTAAATGC DNA 2: GCATTTAAAATGATACATCTTTTATTAGAAGAATTGTGTTCCAGGGCATTGCATGCTT",binding result,[4],no binding
same,binding result,[5],binds
"Bdnf mCG probe (dsDNA, 5mC at central CG: C21 of strand 1 and probably C37 of strand 2 (underlining lost in text)) DNA 1: AAGCATGCAATGCCCTGGAACGGAATTCTTCTAATAAAAGATGTATCATTTTAAATGC DNA 2: GCATTTAAAATGATACATCTTTTATTAGAAGAATTCCGTTCCAGGGCATTGCATGCTT",binding result,[6],binds
"BLI mCAC probe (dsDNA, 5mC at CAC: C8 of strand 1 (underlining lost in text)) DNA 1: TCTGGAACACAATTCTTCTA DNA 2: ATAGAAGAATTGTGTTCCAG",Kd,[2],13.9 nM
